B1: PTP-H1: tyrosine phosphatase expressed in the baculovirus expression system (protein)
chain: MTSRLRALGGRINNIRTSELPKEKTRSEVICSIHFLDGVVQTFKVTKQDTGQVLLDMVHNHLGVTEKEYFGLQHDDDSVDSPRWLEASKAIRKQLKGGFPCTLHFRVRFFIPDPNTLQQEQTRHLYFLQLKMDICEGRLTCPLNSAVVLASYAVQSHFGDYNSSIHHPGYLSDSHFIPDQNEDFLTKVESLHEQHSGLKQSEAESCYINIARTLDFYGVELHSGRDLHNLDLMIGIASAGVAVYRKYICTSFYPWVNILKISFKRKKFFIHQRQKQAESREHIVAFNMLNYRSCKNLWKSCVEHHTFFQAKKLLPQEKNVLSQYWTMGSRNTKKSVNNQYCKKVIGGMVWNPAMRRSLSVEHLETKSLPSRSPPITPNWRSPRLRHEIRKPRHSSADNLANEMTYITETEDVFYTYKGSLAPQDSDSEVSQNRSPHQESLSENNPAQSYLTQKSSSSVSPSSNAPGSCSPDGVDQQLLDDFHRVTKGGSTEDASQYYCDKNDNGDSYLVLIRITPDEDGKFGFNLKGGVDQKMPLVVSRINPESPADTCIPKLNEGDQIVLINGRDISEHTHDQVVMFIKASRESHSRELALVIRRRAVRSFADFKSEDELNQLFPEAIFPMCPEGGDTLEGSMAQLKKGLESGTVLIQFEQLYRKKPGLAITFAKLPQNLDKNRYKDVLPYDTTRVLLQGNEDYINASYVNMEIPAANLVNKYIATQGPLPHTCAQFWQVVWDQKLSLIVMLTTLTERGRTKCHQYWPDPPDVMNHGGFHIQCQSEDCTIAYVSREMLVTNTQTGEEHTVTHLQYVAWPDHGVPDDSSDFLEFVNYVRSLRVDSEPVLVHCSAGIGRTGVLVTMETAMCLTERNLPIYPLDIVRKMRDQRAMMVQTSSQYKFVCEAILRVYEEGLVQMLDPS
B2: protein 4.1: native protein 4.1 isolated from human RBCs (protein, UniProt P11171 1-864, looked up)
Protein 4.1: MTTEKSLVTEAENSQHQQKEEGEEAINSGQQEPQQEESCQTAAEGDNWCEQKLKASNGDTPTHEDLTKNKERTSESRGLSRLFSSFLKRPKSQVSEEEGKEVESDKEKGEGGQKEIEFGTSLDEEIILKAPIAAPEPELKTDPSLDLHSLSSAETQPAQEELREDPDFEIKEGEGLEECSKIEVKEESPQSKAETELKASQKPIRKHRNMHCKVSLLDDTVYECVVEKHAKGQDLLKRVCEHLNLLEEDYFGLAIWDNATSKTWLDSAKEIKKQVRGVPWNFTFNVKFYPPDPAQLTEDITRYYLCLQLRQDIVAGRLPCSFATLALLGSYTIQSELGDYDPELHGVDYVSDFKLAPNQTKELEEKVMELHKSYRSMTPAQADLEFLENAKKLSMYGVDLHKAKDLEGVDIILGVCSSGLLVYKDKLRINRFPWPKVLKISYKRSSFFIKIRPGEQEQYESTIGFKLPSYRAAKKLWKVCVEHHTFFRLTSTDTIPKSKFLALGSKFRYSGRTQAQTRQASALIDRPAPHFERTASKRASRSLDGAAAVDSADRSPRPTSAPAITQGQVAEGGVLDASAKKTVVPKAQKETVKAEVKKEDEPPEQAEPEPTEAWKVEKTHIEVTVPTSNGDQTQKLAEKTEDLIRMRKKKRERLDGENIYIRHSNLMLEDLDKSQEEIKKHHASISELKKNFMESVPEPRPSEWDKRLSTHSPFRTLNINGQIPTGEGPPLVKTQTVTISDNANAVKSEIPTKDVPIVHTETKTITYEAAQTDDNSGDLDPGVLLTAQTITSETPSSTTTTQITKTVKGGISETRIEKRIVITGDADIDHDQVLVQAIKEAKEQHPDMSVTKVVVHQETEIADE

Key:
GST-hDlg fusion protein = GST-hDlg fusion protein (Homo sapiens, UniProt Q12959); assay: Binding of ezrin / PTP-H1 to GST-hDlg; details: PTP-H1 expressed in baculovirus system; data not shown
[1] = test system: three PDZ domains of hDlg; details: ref Lue et al., 1994; cited from earlier work
[2] = test system: protease-resistant module of hDlg containing PDZ domains 1 and 2; details: ref Lue et al., 1995 [Abstract #1557]; cited from earlier work
PDZ 1+2 module = assay: Blot overlay assay; assay type: binding, human; details: data not shown

Row | Molecule | interaction with GST-hDlg (GST-hDlg fusion protein) | affinity for three PDZ domains vs 4.1B (I3) domain [1] | binding to protease-resistant module [2] | binding of protein 4.1 to PDZ 1+2 module (PDZ 1+2 module)
1 | B1 | no interaction | – | – | –
2 | B2 | – | significantly lower affinity | binds | no binding

From article PMC2121072 (The Journal of Cell Biology, 1996)
